# Measured values taken from patent US20250057968A1, “ANTI-DLL3 ANTIBODY AND PHARMACEUTICAL USE THEREOF, AND ANTIBODY-DRUG CONJUGATE CONTAINING ANTI-DLL3 ANTIBODY” (Jiangsu Hengrui Pharmaceuticals Co., Ltd., priority 2021, published 2025).
# Substitutions are numbered along the chain they refer to.
# T1: Human DLL3 full-length protein on cells (human, UniProt Q9NYJ7 27-618)
# T1 construct: H1184 and DMS53 express DLL3 themselves; The cell line is named under assay; also called H1184 cells; DLL3/H82
# T1 sequence: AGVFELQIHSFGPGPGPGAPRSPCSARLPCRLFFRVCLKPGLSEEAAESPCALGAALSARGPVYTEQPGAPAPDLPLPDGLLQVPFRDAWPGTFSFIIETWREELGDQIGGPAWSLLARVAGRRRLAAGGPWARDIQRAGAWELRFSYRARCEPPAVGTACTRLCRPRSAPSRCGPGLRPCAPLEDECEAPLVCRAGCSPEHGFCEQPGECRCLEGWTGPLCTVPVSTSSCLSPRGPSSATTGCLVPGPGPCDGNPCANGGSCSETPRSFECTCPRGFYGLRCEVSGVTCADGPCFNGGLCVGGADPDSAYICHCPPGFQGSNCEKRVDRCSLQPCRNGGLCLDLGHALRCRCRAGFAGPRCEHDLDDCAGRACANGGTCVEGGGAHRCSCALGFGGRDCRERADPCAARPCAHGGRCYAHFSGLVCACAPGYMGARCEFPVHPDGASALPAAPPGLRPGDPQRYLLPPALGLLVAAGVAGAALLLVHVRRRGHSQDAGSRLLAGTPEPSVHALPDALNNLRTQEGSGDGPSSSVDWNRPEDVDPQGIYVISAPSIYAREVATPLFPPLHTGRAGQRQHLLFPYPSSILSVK
# T2: human DLL3 (Homo sapiens, UniProt Q9NYJ7)
# T2 construct: purchased ACRO DLL3-H52H4
# T2 sequence (Q9NYJ7 27-492 limits assumed): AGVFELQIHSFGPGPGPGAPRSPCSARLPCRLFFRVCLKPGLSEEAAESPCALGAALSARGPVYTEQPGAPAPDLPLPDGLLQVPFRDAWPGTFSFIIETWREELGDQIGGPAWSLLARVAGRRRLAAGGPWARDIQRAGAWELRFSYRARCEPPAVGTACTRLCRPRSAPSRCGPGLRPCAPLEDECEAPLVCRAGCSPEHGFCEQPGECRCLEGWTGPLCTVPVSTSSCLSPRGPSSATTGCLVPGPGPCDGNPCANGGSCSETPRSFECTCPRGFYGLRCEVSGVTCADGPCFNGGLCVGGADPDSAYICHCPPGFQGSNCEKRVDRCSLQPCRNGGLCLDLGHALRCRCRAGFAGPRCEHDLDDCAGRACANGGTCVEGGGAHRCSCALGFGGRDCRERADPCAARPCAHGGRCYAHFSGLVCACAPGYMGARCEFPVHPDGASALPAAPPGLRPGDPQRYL
# T3: human DLL3 (ACRO, DLL3-H52H4) (human, UniProt Q9NYJ7 27-479)
# T3 construct: bought antigen of the Biacore assay; construct not described
# T3 sequence (looked up): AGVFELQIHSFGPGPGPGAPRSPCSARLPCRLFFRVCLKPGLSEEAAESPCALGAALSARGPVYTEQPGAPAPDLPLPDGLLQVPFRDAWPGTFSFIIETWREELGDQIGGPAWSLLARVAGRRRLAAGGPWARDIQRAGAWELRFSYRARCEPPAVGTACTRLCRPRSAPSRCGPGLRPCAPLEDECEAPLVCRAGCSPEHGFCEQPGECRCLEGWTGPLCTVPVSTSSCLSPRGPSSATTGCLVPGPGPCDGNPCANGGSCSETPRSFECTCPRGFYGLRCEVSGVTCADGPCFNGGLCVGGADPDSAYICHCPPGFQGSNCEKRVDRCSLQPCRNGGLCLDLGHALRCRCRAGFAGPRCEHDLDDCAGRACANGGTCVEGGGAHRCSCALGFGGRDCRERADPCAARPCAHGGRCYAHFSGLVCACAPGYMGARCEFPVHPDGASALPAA
# B1: hAb100L1H2 (antibody, human IgG1, kappa, V domains shown)
# VH: EVQLVESGGGLVKPGGSLRLSCAASGFTFSDSGMHWIRQAPGKGLEWVAYISSGSSTIHYADTVKGRFTISRDNAKNSLYLQMNSLRAEDTAVYYCASPLYYYGRSYNAVAYWGQGTTVTVSS
# VL: DIQMTQSPSSLSASVGDRVTITCHASQNINVWLSWYQQKPGKVPKLLIYKASDLHTGVPSRFSGSGSGTDFTLTISSLQPEDVATYYCQQGQSYPLTFGGGTKVEIKR
# B2: M100CHI (antibody, human IgG1, kappa, V domains shown)
# VH: B1 VH with R19K, G42E, S78T, Y80F, N84T, A88S, V93M, T118S
# VL: B1 VL with T5N, V15L, R18T, V19I, K42N, V43I, D70G, V83I, V104L
# notes: murine variable regions on human IgG1 / kappa constant regions; also called chimeric antibody of mAb100
# B3: hAb100L2H2 (antibody, human IgG1, kappa, V domains shown)
# VH: B1 VH
# VL: B1 VL with V43I
# B4: hAb100L2H1 (antibody, human IgG1, kappa, V domains shown)
# VH: B1 VH with A49S
# VL: B1 VL with V43I
# B5: hAb100L1H3 (antibody, human IgG1, kappa, V domains shown)
# VH: B1 VH with Y102H
# VL: B1 VL
# B6: hAb100L2H4 (antibody, human IgG1, kappa, V domains shown)
# VH: B1 VH with A109G
# VL: B1 VL with V43I
# B7: hAb100L2H3 (antibody, human IgG1, kappa, V domains shown)
# VH: B1 VH with Y102H
# VL: B1 VL with V43I
# B8: hAb100L1H4 (antibody, human IgG1, kappa, V domains shown)
# VH: B1 VH with A109G
# VL: B1 VL
# B9: hAb6L3H2: humanized antibody of mAb6: hAb6VH2 (SEQ ID NO: 33) + hAb6VL3 (SEQ ID NO: 47), constant regions SEQ ID NO: 28/29 (antibody, V domains shown)
# VH: EVQLVQSGAEVKKPGASVKVSCKASGYTFTDYYMNWVRQAPGQRLEWMGIINPYSGVTIYNHKFKGRVTLTVDKSANTAYMELSSLRSEDTAVYYCARQDSLLDYAMDYWGQGTTVTVSS
# VL: DIQMTQSPSSLSASVGDRVTITCHASQGISGNMGWLQQKPGKSFKGLIYHGANLEDGVPSRFSGSGSGADYTLTISSLQPEDFATYYCVQYAQFPYTFGGGTKVEIK
# modifications: constant regions SEQ ID 28/29; hAb6 VH2; hAb6 VL3
# B10: hAb6L4H4: humanized antibody of mAb6: hAb6VH4 (SEQ ID NO: 35) + hAb6VL4 (SEQ ID NO: 48), constant regions SEQ ID NO: 28/29 (antibody, V domains shown)
# VH: B9 VH with Q43K
# VL: B9 VL with S43A, F44P, T85D
# modifications: constant regions SEQ ID 28/29; hAb6 VH4; hAb6 VL4
# B11: hAb6L4H13: humanized antibody of mAb6: hAb6VH13 (SEQ ID NO: 44) + hAb6VL4 (SEQ ID NO: 48), constant regions SEQ ID NO: 28/29 (antibody, V domains shown)
# VH: EVQLVQSGSELKKPGASVKVSCKASGYTFTDYYMNWVKQAPGQGLEWMGIINPYSGVTIYNHKFKGRFALSVDKSSNTAYLQISSLKAEDTAVYYCARQDSLLDYAMDYWGQGTTVTVSS
# VL: B9 VL with S43A, F44P, T85D
# modifications: constant regions SEQ ID 28/29; hAb6VH13; hAb6 VL4
# B12: hAb6L4H11: humanized antibody of mAb6: hAb6VH11 (SEQ ID NO: 42) + hAb6VL4 (SEQ ID NO: 48), constant regions SEQ ID NO: 28/29 (antibody, V domains shown)
# VH: B11 VH with A69V
# VL: B9 VL with S43A, F44P, T85D
# modifications: constant regions SEQ ID 28/29; hAb6VH11; hAb6 VL4
# B13: hAb6L3H3: humanized antibody of mAb6: hAb6VH3 (SEQ ID NO: 34) + hAb6VL3 (SEQ ID NO: 47), constant regions SEQ ID NO: 28/29 (antibody, V domains shown)
# VH: B9 VH with M48I, V68A
# VL: B9 VL
# modifications: constant regions SEQ ID 28/29; hAb6 VH3; hAb6 VL3
# B14: hAb6L4H6: humanized antibody of mAb6: hAb6VH6 (SEQ ID NO: 37) + hAb6VL4 (SEQ ID NO: 48), constant regions SEQ ID NO: 28/29 (antibody, V domains shown)
# VH: B11 VH with K38R, A69V
# VL: B9 VL with S43A, F44P, T85D
# modifications: constant regions SEQ ID 28/29; hAb6 VH6; hAb6 VL4
# Molecular target: T1, Human DLL3 full-length protein on cells
# Assay: FACS on DLL3/H82 cells
# Experimental: Cells of the DLL3-expressing small cell lung cancer cell lines H1184 (ATCC, Cat. No. CRL-5858), DLL3/H82, cynoDLL3/CHO-s, and RatDLL3/CHO-s were suspended at 1×10^6/mL in FACS buffer (1% BSA+pH 7.4 PBS), and the cell suspensions were added to a 96-well round-bottom plate (Corning, 3795) at 100 μL/well. The plate was centrifuged at 300 g for 5 min, and the supernatant was removed. Different concentrations of test antibodies were added at 100 μL/well. The plate was incubated in the dark in a refrigerator at 4° C. for 1 h. After 3 washes by centrifugation at 300 g, working concentrations of APC anti-human IgG Fc (BioLegend, 410712) or PE F(ab′)2-goat anti-human IgG (invitrogen, H10104) were added. The plate was incubated in the dark in a refrigerator at 4° C. for 40 min. After 3 washes by centrifugation at 300 g, the geometric mean fluorescence intensity was measured on an Invitrogen flow cytometer, and the EC50 values of the antibodies in binding to DLL3-expressing cells were calculated.
EC50,Emax,Molecule
0.3 nM,14800,B1
0.25 nM,13500,B2
0.16 nM,14800,B3
0.29 nM,14400,B4
0.25 nM,14900,B5
0.32 nM,13200,B6
0.3 nM,14800,B7
0.22 nM,14900,B8

# Molecular target: T2, human DLL3
# Assay: Biacore antibody affinity assay, human DLL3
# Assay type: binding
# From the text: (§1) Test antibodies were affinity-captured with a Protein A biosensor chip (Cat. #29127556, Cytiva) for 18 seconds, and then the antigens human DLL3 (ACRO, DLL3-H52H4), cynomolgus monkey DLL3 (KACTUS, DLL-RM103), and mouse DLL3 (KACTUS, DLL-MM103) were allowed to flow over the surface of the chip for 180 seconds, followed by 600 seconds of dissociation. Reaction signals were detected in real time using a Biacore 8K (Cytiva) instrument to obtain association and dissociation curves. After the dissociation in each experimental cycle, the biosensor chip was washed and regenerated with a 10 mM glycine-hydrochloric acid solution (pH 1.5) (Cat. #BR-1003-54, Cytiva). A 1:1 model was fit to the data. The results are shown in Table 12-1, Table 12-2, and Table 12-3.
ka,kd,Molecule
716000 M⁻¹ s⁻¹,0.00114 s⁻¹,B9
743000 M⁻¹ s⁻¹,0.00108 s⁻¹,B10
2.16e+06 M⁻¹ s⁻¹,0.000695 s⁻¹,B11
2.14e+06 M⁻¹ s⁻¹,0.000672 s⁻¹,B12
718000 M⁻¹ s⁻¹,0.00135 s⁻¹,B13
1.91e+06 M⁻¹ s⁻¹,0.000811 s⁻¹,B14

# Molecular target: T3, human DLL3 (ACRO, DLL3-H52H4)
# Assay: SPR (Biacore 8K), antibody captured on Protein A chip, 1:1 fit
# From the text: as §1
Kd,koff,kon,Molecule
0.467 nM,0.000365 s⁻¹,781000 M⁻¹ s⁻¹,B1
0.528 nM,0.000546 s⁻¹,1.03e+06 M⁻¹ s⁻¹,B2
0.437 nM,0.00037 s⁻¹,848000 M⁻¹ s⁻¹,B3
1.1 nM,0.000629 s⁻¹,572000 M⁻¹ s⁻¹,B4
0.424 nM,0.000352 s⁻¹,832000 M⁻¹ s⁻¹,B5
1 nM,0.000655 s⁻¹,652000 M⁻¹ s⁻¹,B6
0.664 nM,0.000268 s⁻¹,404000 M⁻¹ s⁻¹,B7
0.729 nM,0.000254 s⁻¹,348000 M⁻¹ s⁻¹,B8
